# Assay results published in patent US20210221899A1 (published 2021).
# T1: human NGF (human, UniProt P01138 122-241)
# T1 construct: also called human Nerve Growth Factor; hN
# T1 chain: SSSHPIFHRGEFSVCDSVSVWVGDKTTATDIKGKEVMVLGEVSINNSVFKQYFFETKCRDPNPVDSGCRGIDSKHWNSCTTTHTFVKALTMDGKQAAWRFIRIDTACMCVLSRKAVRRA
# T2: canine NGF (canine, UniProt Q29074 110-229 (pig entry), limits assumed)
# T2 construct: The protein was secreted from CHO cells and purified; also called cNGF; canine β-NGF
# T2 chain: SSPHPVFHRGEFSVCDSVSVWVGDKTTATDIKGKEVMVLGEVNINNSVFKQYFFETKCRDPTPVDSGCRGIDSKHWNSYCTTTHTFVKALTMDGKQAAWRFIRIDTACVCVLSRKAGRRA
# Key:
# Assay in all cases: SPR (Biacore T200), 100 nM mAb on NGF chip, similarity to parent mAb
# [1] = target: T1, human NGF
# Source text: (§1) The region of an antibody responsible for antigen recognition represents the paratope. A paratope is created by a combination of amino acids in the complementarity determining regions (CDRs) of both the heavy and light chain variable regions. The binding between antibody and antigen is often mediated by side chains of CDR residues with side chains or carbohydrate moieties of the antigen. To help define critical side chains involved in antibody recognition alanine scanning mutagenesis was performed on each CDR residue in both the heavy and light chain, the technique as described by Cunningham and Wells (1989) Science, Vol. 244, Issue 4908, pp. 1081-1085. These mutants were then individually tested for the ability to NGF using the Biacore. […] Values were then compared to the wild type antibodies and are represented in the tables as a percent of wild type binding. The data presented in Tables 4 and 5 below are shown as a “percent similarity score” compared to wild type.
# (§2) The mean response unit of four replicates of the parent mAb+/−3 standard deviations was used to generate parameters to define a threshold of response units comprising both the on- and off-rates antibody binding. The percentage of data points for each mutant fell within this threshold was then used to define a “% similarity score”. […] Results from substitution of alanine at each CDR position
# [2] = target: T3, rat NGF (rat, UniProt P25427 122-241)
# T3 construct: also called rN
# Source text: as §1, §2
# [3] = target: T2, canine NGF
# Source text: as §1, §2
# T3 sequence (P25427 122-241 limits assumed): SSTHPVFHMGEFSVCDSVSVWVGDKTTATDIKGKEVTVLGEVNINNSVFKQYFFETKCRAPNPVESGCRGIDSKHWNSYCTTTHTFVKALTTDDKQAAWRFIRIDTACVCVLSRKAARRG
Binder,Percent Similarity Score (KD on hN) [1],Percent Similarity Score (KD on rN) [2],Percent Similarity Score (KD on cN) [3]
"can9L12VH_T58A (antibody, V domains shown) VH: EVQLVESGGDLVKPGGSLRLSCVASGFTFSSHGMHWVRQSPGKGLQWVAVINSGGSSAYYTDAVKGRFTISRDNAKNTVYLQMNSLRAEDTAMYYCAKESVGGWEQLVGPHFDYWGQGTLVIVSS VL: QSVLTQPTSVSGSLGQRVTISCSGSTNNIGILGASWYQLFPGKAPKLLVYGNGNRPSGVPDRFSGADSGDSVTLTITGLQAEDEADYYCQSFDTTLGAHVFGGGTHLTVL",100%,99.9%,100%
"can9L12VH_V101A (antibody, V domains shown) VH: EVQLVESGGDLVKPGGSLRLSCVASGFTFSSHGMHWVRQSPGKGLQWVAVINSGGSSTYYTDAVKGRFTISRDNAKNTVYLQMNSLRAEDTAMYYCAKESAGGWEQLVGPHFDYWGQGTLVIVSS VL: QSVLTQPTSVSGSLGQRVTISCSGSTNNIGILGASWYQLFPGKAPKLLVYGNGNRPSGVPDRFSGADSGDSVTLTITGLQAEDEADYYCQSFDTTLGAHVFGGGTHLTVL",5.29%,4.27%,13.6%
"can9L12VL_I31A (antibody, V domains shown) VH: EVQLVESGGDLVKPGGSLRLSCVASGFTFSSHGMHWVRQSPGKGLQWVAVINSGGSSTYYTDAVKGRFTISRDNAKNTVYLQMNSLRAEDTAMYYCAKESVGGWEQLVGPHFDYWGQGTLVIVSS VL: QSVLTQPTSVSGSLGQRVTISCSGSTNNIGALGASWYQLFPGKAPKLLVYGNGNRPSGVPDRFSGADSGDSVTLTITGLQAEDEADYYCQSFDTTLGAHVFGGGTHLTVL",11.4%,12.6%,41.2%
"can9L12VL_G53A (antibody, V domains shown) VH: EVQLVESGGDLVKPGGSLRLSCVASGFTFSSHGMHWVRQSPGKGLQWVAVINSGGSSTYYTDAVKGRFTISRDNAKNTVYLQMNSLRAEDTAMYYCAKESVGGWEQLVGPHFDYWGQGTLVIVSS VL: QSVLTQPTSVSGSLGQRVTISCSGSTNNIGILGASWYQLFPGKAPKLLVYGNANRPSGVPDRFSGADSGDSVTLTITGLQAEDEADYYCQSFDTTLGAHVFGGGTHLTVL",10%,11.7%,34.2%
"can9L12VH_V108A (antibody, V domains shown) VH: EVQLVESGGDLVKPGGSLRLSCVASGFTFSSHGMHWVRQSPGKGLQWVAVINSGGSSTYYTDAVKGRFTISRDNAKNTVYLQMNSLRAEDTAMYYCAKESVGGWEQLAGPHFDYWGQGTLVIVSS VL: QSVLTQPTSVSGSLGQRVTISCSGSTNNIGILGASWYQLFPGKAPKLLVYGNGNRPSGVPDRFSGADSGDSVTLTITGLQAEDEADYYCQSFDTTLGAHVFGGGTHLTVL",56.3%,62%,93.2%
"can9L12VH_Y114A (antibody, V domains shown) VH: EVQLVESGGDLVKPGGSLRLSCVASGFTFSSHGMHWVRQSPGKGLQWVAVINSGGSSTYYTDAVKGRFTISRDNAKNTVYLQMNSLRAEDTAMYYCAKESVGGWEQLVGPHFDAWGQGTLVIVSS VL: QSVLTQPTSVSGSLGQRVTISCSGSTNNIGILGASWYQLFPGKAPKLLVYGNGNRPSGVPDRFSGADSGDSVTLTITGLQAEDEADYYCQSFDTTLGAHVFGGGTHLTVL",99.9%,99.2%,100%
"can9L12VL_G97A (antibody, V domains shown) VH: EVQLVESGGDLVKPGGSLRLSCVASGFTFSSHGMHWVRQSPGKGLQWVAVINSGGSSTYYTDAVKGRFTISRDNAKNTVYLQMNSLRAEDTAMYYCAKESVGGWEQLVGPHFDYWGQGTLVIVSS VL: QSVLTQPTSVSGSLGQRVTISCSGSTNNIGILGASWYQLFPGKAPKLLVYGNGNRPSGVPDRFSGADSGDSVTLTITGLQAEDEADYYCQSFDTTLAAHVFGGGTHLTVL",43.3%,35.9%,98.9%
"can9L12VL_G51A (antibody, V domains shown) VH: EVQLVESGGDLVKPGGSLRLSCVASGFTFSSHGMHWVRQSPGKGLQWVAVINSGGSSTYYTDAVKGRFTISRDNAKNTVYLQMNSLRAEDTAMYYCAKESVGGWEQLVGPHFDYWGQGTLVIVSS VL: QSVLTQPTSVSGSLGQRVTISCSGSTNNIGILGASWYQLFPGKAPKLLVYANGNRPSGVPDRFSGADSGDSVTLTITGLQAEDEADYYCQSFDTTLGAHVFGGGTHLTVL",100%,99.9%,100%
"can9L12VH_W104A (antibody, V domains shown) VH: EVQLVESGGDLVKPGGSLRLSCVASGFTFSSHGMHWVRQSPGKGLQWVAVINSGGSSTYYTDAVKGRFTISRDNAKNTVYLQMNSLRAEDTAMYYCAKESVGGAEQLVGPHFDYWGQGTLVIVSS VL: QSVLTQPTSVSGSLGQRVTISCSGSTNNIGILGASWYQLFPGKAPKLLVYGNGNRPSGVPDRFSGADSGDSVTLTITGLQAEDEADYYCQSFDTTLGAHVFGGGTHLTVL",5.2%,8.2%,19.2%
"can9L12VL_G30A (antibody, V domains shown) VH: EVQLVESGGDLVKPGGSLRLSCVASGFTFSSHGMHWVRQSPGKGLQWVAVINSGGSSTYYTDAVKGRFTISRDNAKNTVYLQMNSLRAEDTAMYYCAKESVGGWEQLVGPHFDYWGQGTLVIVSS VL: QSVLTQPTSVSGSLGQRVTISCSGSTNNIAILGASWYQLFPGKAPKLLVYGNGNRPSGVPDRFSGADSGDSVTLTITGLQAEDEADYYCQSFDTTLGAHVFGGGTHLTVL",16.2%,13.8%,53.9%
"can9L12VL_G33A (antibody, V domains shown) VH: EVQLVESGGDLVKPGGSLRLSCVASGFTFSSHGMHWVRQSPGKGLQWVAVINSGGSSTYYTDAVKGRFTISRDNAKNTVYLQMNSLRAEDTAMYYCAKESVGGWEQLVGPHFDYWGQGTLVIVSS VL: QSVLTQPTSVSGSLGQRVTISCSGSTNNIGILAASWYQLFPGKAPKLLVYGNGNRPSGVPDRFSGADSGDSVTLTITGLQAEDEADYYCQSFDTTLGAHVFGGGTHLTVL",2.3%,2.9%,7.5%
"can9L12VL_H99A (antibody, V domains shown) VH: EVQLVESGGDLVKPGGSLRLSCVASGFTFSSHGMHWVRQSPGKGLQWVAVINSGGSSTYYTDAVKGRFTISRDNAKNTVYLQMNSLRAEDTAMYYCAKESVGGWEQLVGPHFDYWGQGTLVIVSS VL: QSVLTQPTSVSGSLGQRVTISCSGSTNNIGILGASWYQLFPGKAPKLLVYGNGNRPSGVPDRFSGADSGDSVTLTITGLQAEDEADYYCQSFDTTLGAAVFGGGTHLTVL",56.9%,43.7%,100%
"can9L12VL_I29A (antibody, V domains shown) VH: EVQLVESGGDLVKPGGSLRLSCVASGFTFSSHGMHWVRQSPGKGLQWVAVINSGGSSTYYTDAVKGRFTISRDNAKNTVYLQMNSLRAEDTAMYYCAKESVGGWEQLVGPHFDYWGQGTLVIVSS VL: QSVLTQPTSVSGSLGQRVTISCSGSTNNAGILGASWYQLFPGKAPKLLVYGNGNRPSGVPDRFSGADSGDSVTLTITGLQAEDEADYYCQSFDTTLGAHVFGGGTHLTVL",1.5%,1.6%,4.4%
"can9L12VL_D93A (antibody, V domains shown) VH: EVQLVESGGDLVKPGGSLRLSCVASGFTFSSHGMHWVRQSPGKGLQWVAVINSGGSSTYYTDAVKGRFTISRDNAKNTVYLQMNSLRAEDTAMYYCAKESVGGWEQLVGPHFDYWGQGTLVIVSS VL: QSVLTQPTSVSGSLGQRVTISCSGSTNNIGILGASWYQLFPGKAPKLLVYGNGNRPSGVPDRFSGADSGDSVTLTITGLQAEDEADYYCQSFATTLGAHVFGGGTHLTVL",3.3%,3.7%,11%
"can9L12VL_F92A (antibody, V domains shown) VH: EVQLVESGGDLVKPGGSLRLSCVASGFTFSSHGMHWVRQSPGKGLQWVAVINSGGSSTYYTDAVKGRFTISRDNAKNTVYLQMNSLRAEDTAMYYCAKESVGGWEQLVGPHFDYWGQGTLVIVSS VL: QSVLTQPTSVSGSLGQRVTISCSGSTNNIGILGASWYQLFPGKAPKLLVYGNGNRPSGVPDRFSGADSGDSVTLTITGLQAEDEADYYCQSADTTLGAHVFGGGTHLTVL",2.7%,2.3%,7.2%
